# From article PMC5673899, “Structural basis for receptor recognition of pollen tube attraction peptides” (Nature Communications, 2017)
# B1: AtLURE1.2: mature form of AtLURE1.2 (residues 20–90), defensin-like cysteine-rich peptide expressed in insect cells (protein)
# chain: TLINGSSDEERTYSFSPTTSPFDPRSLNQELKIGRIGYCFDCARACMRRGKYIRTCSFERKLCRCSISDIK
# modifications: left off: His6, N-terminal, cleaved | SUMO, N-terminal, cleaved
# notes: mature form of AtLURE1.2 (residues 20–90), defensin-like cysteine-rich peptide expressed in insect cells
# How the values were obtained:
# AtPRK6^LRR = assay: In vitro pull-down with AtPRK6^LRR; assay type: binding, Arabidopsis thaliana; conditions: Ni-NTA, excess AtLURE1.2, on ice 30 min, washed five times, 25 mM Tris pH 8.0, 150 mM NaCl; SDS-PAGE, Coomassie blue; repeated at least three times
# From the text: (§1) The genes of AtPRK3 ^LRR (residues 1–241), AtPRK4 ^LRR (residues 1–277), AtPRK5 ^LRR (residues 1–279), AtPRK6 ^LRR (residues 1–262), MIK1 ^LRR (residues 1–633), MIK2 ^LRR (residues 1–707) were amplified from Arabidopsis cDNA library by PCR and cloned into pFastBac-1 vector with a C-terminal 6 × His-tag. Their identities were confirmed by sequencing. The mature form of AtLURE1.1 (residues 20–94), AtLURE1.2 (residues 20–90), AtLURE1.3 (residues 21–91), and AtLURE1.4 (residues 20–90) were cloned into pFastBac-1 vector, with a modified N-terminal hemolin signal peptide and 6 × His-SUMO tag. Point mutation constructs were generated by QuickChange Site-Directed Mutagenesis Kit (Strategene). All the proteins were expressed using the Bac-to-Bac baculovirus expression system (Invitrogen) in High Five cells at 22 °C. One liter of High Five cells (2.0 × 10^6 cells mL^−1) cultured in the medium from Expression Systems was infected with 25 ml recombinant baculovirus and the media was collected after 72 h of infection. Secreted LRR proteins were purified using Ni-NTA (Novagen) and size-exclusion chromatography (Hiload 200, GE Healthcare) in buffer containing 10 mM Bis-Tris pH 6.0 and 100 mM NaCl. The His-SUMO tag of the AtLURE proteins was removed by Prescission Protease at 4 °C overnight in buffer containing 25 mM Tris pH 8.0 and 150 mM NaCl. All AtLURE proteins were further cleaned by size-exclusion chromatography (Hiload 200, GE Healthcare). For co-expression of AtPRK6^LRR and AtLURE1, one liter of High Five cells were co-infected with 20 and 30 ml recombinant baculovirus of AtPRK6^LRR and AtLURE1, respectively. Secreted AtPRK6^LRR-AtLURE1 complexes were processed with Prescission Protease digestion and then purified as described above. Expression and purification procedures of all the mutants were essentially the same as those of AtPRK6^LRR and AtLURE1.2.
# (§2) The purified His-tagged ectodomains of AtPRK proteins and MIK1, 2 were used to pull-down the AtLURE1.2 peptide. […] All the eluted samples were analyzed by SDS-PAGE and visualized by Coomassie blue staining. […]
# MIK2^LRR [1] = assay: In vitro pull-down with MIK2^LRR; assay type: binding, Arabidopsis; conditions: Ni-NTA, excess AtLURE1.2, on ice 30 min, washed five times; SDS-PAGE, Coomassie blue
# From the text: as §1, with “The His-SUMO tag of the AtLURE proteins was removed by Prescission Protease at 4 °C overnight in buffer containing 25 mM Tris pH 8.0 and 150 mM NaCl. All AtLURE proteins were further cleaned by size-exclusion chromatography (Hiload 200, GE Healthcare). For co-expression of AtPRK6^LRR and AtLURE1, one liter of High Five cells were co-infected with 20 and 30 ml recombinant baculovirus of AtPRK6^LRR and AtLURE1, respectively. Secreted AtPRK6^LRR-AtLURE1 complexes were processed with Prescission Protease digestion and then purified as described above. Expression and purification procedures of all the mutants were essentially the same as those of AtPRK6^LRR and AtLURE1.2.” left out
# as §2
# AtPRK3^LRR = assay: Gel filtration assay with AtPRK3^LRR; assay type: binding, Arabidopsis; conditions: 4 °C 30 min, 10 mM Bis-Tris pH 6.0, 100 mM NaCl
# From the text: as §1, with “All AtLURE proteins were further cleaned by size-exclusion chromatography (Hiload 200, GE Healthcare). For co-expression of AtPRK6^LRR and AtLURE1, one liter of High Five cells were co-infected with 20 and 30 ml recombinant baculovirus of AtPRK6^LRR and AtLURE1, respectively. Secreted AtPRK6^LRR-AtLURE1 complexes were processed with Prescission Protease digestion and then purified as described above. Expression and purification procedures of all the mutants were essentially the same as those of AtPRK6^LRR and AtLURE1.2.” left out
# MIK2^LRR [2] = assay: Gel filtration assay with MIK2^LRR; assay type: binding, Arabidopsis; conditions: 4 °C 30 min, 10 mM Bis-Tris pH 6.0, 100 mM NaCl
# From the text: as §1, with “All AtLURE proteins were further cleaned by size-exclusion chromatography (Hiload 200, GE Healthcare). For co-expression of AtPRK6^LRR and AtLURE1, one liter of High Five cells were co-infected with 20 and 30 ml recombinant baculovirus of AtPRK6^LRR and AtLURE1, respectively. Secreted AtPRK6^LRR-AtLURE1 complexes were processed with Prescission Protease digestion and then purified as described above. Expression and purification procedures of all the mutants were essentially the same as those of AtPRK6^LRR and AtLURE1.2.” left out
# MDIS1 = conditions: cited from earlier work
# From the text: (§3) More recently, progress has been made in the identification of sensory receptors for external cues during pollen tube guidance, [18]. Through genetic screening, two research groups identified different pollen tube specific receptor kinases (RKs) which can function as the receptors of AtLURE1 (refs. [19], [20]). […] By contrast, our data ... || page 2: co-receptor in the signaling system. Typos : - line 167 : Lue242 instead of Leu242 Reviewer #3 (Remarks to the Author): The Zhang et al. manuscript is a continuation of the study of pollen tube guidance to its female target to deliver sperm for fertilization, starting almost twenty years ago by the Higashiyama group, which recently reported a number of pollen receptor kinases (PRKs) as receptors for the attractant LURE1(- 2) from Arabidopsis. The Zhang et al study here caps it by elucidating the structure of LURE1-PRK6 on the atomic level. In principle, the study is an imminently publi ...
# MIK1 = conditions: cited from earlier work
# From the text: as §3
# MIK2 = conditions: cited from earlier work
# From the text: as §3
molecule,measurement,setting,value
B1,interaction in pull-down assay,AtPRK6^LRR,strongly interacted
same,interaction in pull-down assay,MIK2^LRR [1],none of the other LRR proteins was found to interact
same,interaction in gel filtration,AtPRK3^LRR,"none of the purified AtPRK3^LRR, MIK1^LRR or MIK2^LRR proteins showed detectable interaction"
same,interaction in gel filtration,MIK2^LRR [2],"none of the purified AtPRK3^LRR, MIK1^LRR or MIK2^LRR proteins showed detectable interaction"
same,binding to MDIS1,MDIS1,directly binds
same,binding to MIK1,MIK1,directly binds
same,binding to MIK2,MIK2,directly binds
